Results taken from patent publication US20240166745A1 (Eli Lilly, published 2024).

How the values were obtained:
[1] = molecular target: PathHunter U2OS PD-1/LAG-3 dimerization cell line (human PD-1 aa 1-199-EA and human LAG-3 aa 1-477-PK) (human); assay: cell-based or functional assay
Human LAG-3 ECD-His = molecular target: T1, Human LAG-3 ECD-His (human, UniProt P18627 23-449); assay: SPR (Biacore T200), antibody captured on PrismA chip, ECD as analyte, 25° C.
T1 construct: Soluble analyte in SPR; the entry includes linker and His tag; also called human LAG-3-His
T1 sequence: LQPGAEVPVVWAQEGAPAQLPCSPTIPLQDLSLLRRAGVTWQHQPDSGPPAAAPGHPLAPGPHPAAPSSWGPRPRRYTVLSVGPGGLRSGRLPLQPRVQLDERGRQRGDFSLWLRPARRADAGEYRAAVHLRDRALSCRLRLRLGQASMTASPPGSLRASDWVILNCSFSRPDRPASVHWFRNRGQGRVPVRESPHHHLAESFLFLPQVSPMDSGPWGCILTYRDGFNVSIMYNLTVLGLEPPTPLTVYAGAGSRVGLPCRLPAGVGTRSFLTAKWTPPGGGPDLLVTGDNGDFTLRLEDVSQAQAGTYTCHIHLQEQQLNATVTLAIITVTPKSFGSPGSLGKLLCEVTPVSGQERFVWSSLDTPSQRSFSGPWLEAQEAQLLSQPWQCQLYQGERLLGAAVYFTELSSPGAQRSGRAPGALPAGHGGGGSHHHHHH
Procedure: (§1) A Biacore® T200 (Cytiva, Marlborough, MA) was used to measure the binding kinetics and affinities of the LAG-3 antibody to the LAG-3 soluble extracellular domain (ECD) and the bispecific antibody to soluble LAG-3-ECD and PD-1-ECD (human: Sino Biologicals, Cat #10377-H08H; cynomolgus: Sino Biologicals, Cat #90311-C08H) by surface plasmon resonance. Samples were diluted in HBS-EP+ (10 mM Hepes, 150 mM NaCl, 3 mM EDTA, 0.05% Tween-20, pH 7.6) (Teknova Cat #H8022) with 5 g/L of BSA (Jackson ImmunoResearch Cat #001-000-161) running buffer. PrismA Series S Sensor chip (Cat #29650263) is purchased from Cytiva.
(§2) Binding was evaluated using multi-cycle kinetics by an antibody capture method. Each cycle was performed at either 37° C. or 25° C. at a flow rate of 10 μL/min for antibody capture to the PrismA chip and 100 μL/min for analyte association (with 120 sec contact time) and dissociation (900 sec). Each cycle consisted of the following steps: injection of bispecific antibody at 1 μg/mL in HBS-EP+ targeting Rmax values of 125 RU (LAG-3 arm), 294 RU (PD-1 arm) and 63 RU (LAG-3 antibody) on flow cell, injection of analyte in HBS-EP+(concentration range of 62.5 nM to 0.25 nM by two-fold serial dilution for both human PD-1-ECD-His (SEQ ID NO: 40) and human LAG-3-His (SEQ ID NO: 42) followed by 900-second dissociation phase, and regeneration using 10 μL of 10 mM glycine hydrochloride, pH 1.5 over a 60-second contact time utilizing a 10 μL/min flow rate. All analyte concentrations were determined utilizing monomeric molecular weight (MW) values. Association rates (kₒₙ) and dissociation rates (koff) for LAG-3-ECD and PD-1-ECD were evaluated using double referencing by flow-cell one reference subtraction in addition to 0 nM blank subtraction and fit to “1:1 (Langmuir) binding” model in the BIAevaluation software version 4.1. The dissociation constant (KD) was calculated from the binding kinetics according to the relationship KD=Koff/Kₒₙ. Stoichiometry=[RUₘₐₓ/RUcaptured]/[MWanalyte/MWantibody] where MWAntibodyA is 150 kDa. Values are reported as mean±standard deviation.

Cynomolgus PD-1-ECD = molecular target: T2, Cynomolgus PD-1-ECD (cynomolgus, UniProt B0LAJ3 25-170); assay: as above
T2 construct: commercial protein; also called cynomolgus PD-1-ECD (Sino Biologicals, Cat #90311-C08H); not shown: C-terminal polyhistidine tag of the vendor product (Sino Biological 90311-C08H)
T2 sequence (B0LAJ3 entry or part of it limits assumed): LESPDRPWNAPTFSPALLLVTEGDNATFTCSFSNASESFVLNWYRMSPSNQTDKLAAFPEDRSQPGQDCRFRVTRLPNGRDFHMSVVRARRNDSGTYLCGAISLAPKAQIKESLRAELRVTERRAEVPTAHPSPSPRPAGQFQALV
Procedure: as §1, §2

Cynomolgus LAG-3-ECD = molecular target: T3, Cynomolgus LAG-3-ECD (cynomolgus); assay: as above
T3 construct: as printed it starts with the N-terminal leader (MWEAQ...) and ends with a His tag; also called Cynomolgus LAG-3 ECD-His
T3 chain: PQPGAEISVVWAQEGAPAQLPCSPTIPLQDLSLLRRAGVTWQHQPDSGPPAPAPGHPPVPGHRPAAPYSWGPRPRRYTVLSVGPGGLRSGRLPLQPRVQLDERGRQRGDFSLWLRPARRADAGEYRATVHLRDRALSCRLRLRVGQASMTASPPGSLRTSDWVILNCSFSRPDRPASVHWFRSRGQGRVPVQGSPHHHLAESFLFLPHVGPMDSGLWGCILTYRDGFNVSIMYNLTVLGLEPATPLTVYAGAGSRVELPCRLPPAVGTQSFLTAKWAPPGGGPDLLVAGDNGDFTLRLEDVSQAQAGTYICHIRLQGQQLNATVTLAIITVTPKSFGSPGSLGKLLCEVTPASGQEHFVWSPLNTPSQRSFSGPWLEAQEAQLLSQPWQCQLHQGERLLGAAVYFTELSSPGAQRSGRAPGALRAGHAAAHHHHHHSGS
Procedure: as §1, §2

Human PD-1 ECD-His = molecular target: T4, Human PD-1 ECD-His (human, UniProt Q15116 25-167); assay: as above
T4 construct: Soluble analyte in SPR; the entry includes the His tag
T4 sequence (Q15116 other isoform, or with tags, fused parts or gaps): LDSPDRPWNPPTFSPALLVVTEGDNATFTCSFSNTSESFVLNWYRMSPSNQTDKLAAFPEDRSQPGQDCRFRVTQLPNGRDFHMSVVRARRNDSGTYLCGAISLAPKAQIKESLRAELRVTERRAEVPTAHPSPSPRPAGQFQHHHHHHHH
Procedure: as §1, §2

[2] = molecular target: T5, cell membrane-expressed human LAG-3/PD-1 (human, UniProt P18627 23-525; Q15116 25-288); assay: flow cytometry, labeled antibody on anti-CD3 activated human PBMC, CD8 T cells, percent of cells bound (mean +/- SEM, n=3)
T5 construct: also called Human CD4
T5 sequence (Q15116 25-288 limits assumed, one chain of several): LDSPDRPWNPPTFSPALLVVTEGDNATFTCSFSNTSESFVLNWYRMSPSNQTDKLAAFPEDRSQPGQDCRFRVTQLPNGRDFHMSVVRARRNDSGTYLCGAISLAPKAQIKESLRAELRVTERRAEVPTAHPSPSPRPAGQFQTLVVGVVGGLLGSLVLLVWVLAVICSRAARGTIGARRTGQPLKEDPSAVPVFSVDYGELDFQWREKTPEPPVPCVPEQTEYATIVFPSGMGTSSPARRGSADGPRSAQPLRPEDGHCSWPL
Procedure: Cells were incubated with 10-12 point, 3-fold serial dilutions of the respective labeled antibody (Invitrogen #S20026, Invitrogen #C20029), starting at 30 ug/mL, in PBS+2% FCS for 30 minutes at 4° C. and containing the following: CD4 eBioscience #12-0047-42 or Biolegend #344634; CD8 eBioscience #25-0088-42; CD3 eBioscience 56-0038-82 for human cells and BD #557917 for cyno cells; CD33 eBioscience 45-0338-42 for human cells; Live/Dead eBioscience #65-0865-18. After washing thoroughly, cells were processed on a BD Fortessa or Fortessa X20 cytometer, and data were analyzed with Flowjo software (BD Biosciences). Percent of cells bound by the respective antibody is quantified and graphed with Prism (Graphpad, San Diego, CA).

Chain of PathHunter U2OS PD-1/LAG-3 dimerization cell line (human PD-1 aa 1-199-EA and human LAG-3 aa 1-477-PK) (human) (Q15116 1-199, chain 1 of 2): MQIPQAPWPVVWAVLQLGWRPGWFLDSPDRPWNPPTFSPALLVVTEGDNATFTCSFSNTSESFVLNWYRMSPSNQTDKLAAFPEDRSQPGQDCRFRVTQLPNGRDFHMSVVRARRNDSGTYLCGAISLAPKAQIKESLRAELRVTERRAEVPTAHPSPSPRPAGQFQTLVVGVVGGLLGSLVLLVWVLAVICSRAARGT
Chain of PathHunter U2OS PD-1/LAG-3 dimerization cell line (human PD-1 aa 1-199-EA and human LAG-3 aa 1-477-PK) (human) (P18627 1-477, chain 2 of 2, further chain): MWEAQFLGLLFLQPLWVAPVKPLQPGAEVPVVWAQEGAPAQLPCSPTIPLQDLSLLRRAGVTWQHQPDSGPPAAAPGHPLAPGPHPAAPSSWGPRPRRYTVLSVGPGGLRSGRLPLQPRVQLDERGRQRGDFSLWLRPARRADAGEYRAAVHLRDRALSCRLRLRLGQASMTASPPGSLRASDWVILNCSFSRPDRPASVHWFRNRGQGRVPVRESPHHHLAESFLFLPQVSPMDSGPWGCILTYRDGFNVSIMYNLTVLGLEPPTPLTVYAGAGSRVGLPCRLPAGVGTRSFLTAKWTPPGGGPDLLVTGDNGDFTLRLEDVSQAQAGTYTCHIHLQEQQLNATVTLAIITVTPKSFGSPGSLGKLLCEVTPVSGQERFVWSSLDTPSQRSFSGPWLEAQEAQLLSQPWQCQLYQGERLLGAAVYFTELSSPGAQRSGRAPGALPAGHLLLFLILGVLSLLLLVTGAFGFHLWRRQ

B1: Antibody A (bispecific antibody, human IgG1, kappa, lambda)
heavy 1: not shown
light 1: DIVMTQTPLSLPVTPGEPASISCRSSQSLLDSAEGSTYLDWFLRKPGDSPQLLIYTLSYRASGVPDRFSGSGSGTDFTLKISRVEAEDVGVYYCMQRVEFPYTFGQGTKVEIKRTVAAPSVFIFPPSKEQLKSGTASVVCLLNNFYPREAKVQWKVDNALQSGNSQESVTEQDSKDSTYSLSSTLTLSKADYEKHKVYACEVTHQGLSSPVTKSFNRGEC
heavy 2: QVQLVQSGAEVKKPGASVKVSCKVSGYSLSKYDMSWVRKAPGKGLEWMGIIYTSGYTDYAQEFQGRVTMTEDTSTDTAYMELSSLRSEDTAVYYCATGNPYYTNGFNSWGQGTLVTVSSASTKGPSVFPLAPSSKSTSGGTAALGCLVKDYFPEPVTVSWNSGALTSGVATGPAVLQSSGLYSLSSVVTVPSSSLGTQTYICNVNHKPSNTKVDKRVEPKSCDKTHTCPPCPAPELLGGPSVFLFPPKPKDTLMISRTPEVTCVVVDVSHEDPEVKFNWYVDGVEVHNAKTKPREEQYNSTYRVVSVLTVLHQDWLNGKEYKCKVSNKALPAPIEKTISKAKGQPREPQVYTLPPSREEMTDNQVSLTCLVKGFYPSDIAVEWESNGQPENNYKTTPPVLMSDGSFFLASKLTVDKSRWQQGNVFSCSVMHEALHNHYTQKSLSLSPGK
light 2: RIQMTQSPSSLSASVGDRVTITCQASQSPNNLLAWYQDKPGKAPKLLIYGASDLPSGVPSRFSGSGSGTDFTLTISSLQPEDFATYYCQNNYYVGPVSYAFGGGTKVEIKGQPKAAPSVTLFPPSSEELQANKATLVCYISDFYPGAVTVAWKADSSPVKAGVETTTPSKQSNNKYAAWSYLSLTPEQWKSHRSYSCQVTHEGSTVEKTVAPTEC
notes: IgG-like bispecific with one LAG-3 arm and one PD-1 arm; also called human LAG-3/human PD-1 dual agonist bispecific antibody
- EC50 for induction of PD-1 and LAG-3 dimerization (enzyme fragment complementation, luminescence) [1]: 2.97 nM
- Kd (Human LAG-3 ECD-His): 0.55 nM
- koff (Human LAG-3 ECD-His): 0.019 s⁻¹
- kon (Human LAG-3 ECD-His): 3.4e+07 M⁻¹ s⁻¹
- Kd (Cynomolgus PD-1-ECD): 1.6 nM
- koff (Cynomolgus PD-1-ECD): 0.002 s⁻¹
- kon (Cynomolgus PD-1-ECD): 1.3e+06 M⁻¹ s⁻¹
- Kd (Cynomolgus LAG-3-ECD): 0.031 nM
- koff (Cynomolgus LAG-3-ECD): 0.0017 s⁻¹
- kon (Cynomolgus LAG-3-ECD): 5.4e+07 M⁻¹ s⁻¹
- Kd (Human PD-1 ECD-His): 0.76 nM
- koff (Human PD-1 ECD-His): 0.00057 s⁻¹
- EC50 [2]: 6.8 ng/mL

B2: Antibody B (bispecific antibody, human IgG1, kappa, lambda)
heavy 1: not shown
light 1: DIVMTQTPLSLPVTPGEPASISCRSSQSLLDSAEGSTYLDWFLRKPGDSPQLLIYTLSYRASGVPDRFSGSGSGTDFTLKISRVEAEDVGVYYCMQRVEFPYTFGQGTKVEIKRTVAAPSVFIFPPSKEQLKSGTASVVCLLNNFYPREAKVQWKVDNALQSGNSQESVTEQDSKDSTYSLSSTLTLSKADYEKHKVYACEVTHQGLSSPVTKSFNRGEC
heavy 2: QVQLVQSGAEVKKPGASVKVSCKVSGYSLSKYDMSWVRKAPGKGLEWMGIIYTSGYTDYAQEFQGRVTMTEDTSTDTAYMELSSLRSEDTAVYYCATGNPYYTNGFNSWGQGTLVTVSSASTKGPSVFPLAPSSKSTSGGTAALGCLVKDYFPEPVTVSWNSGALTSGVATGPAVLQSSGLYSLSSVVTVPSSSLGTQTYICNVNHKPSNTKVDKRVEPKSCDKTHTCPPCPAPELLGGPSVFLFPPKPKDTLMISRTPEVTCVVVDVSHEDPEVKFNWYVDGVEVHNAKTKPREEQYNSTYRVVSVLTVLHQDWLNGKEYKCAVSNKALPAPIEKTISKAKGQPREPQVYTLPPSREEMTDNQVSLTCLVKGFYPSDIAVEWESNGQPENNYKTTPPVLMSDGSFFLASKLTVDKSRWQQGNVFSCSVMHEALHNHYTQKSLSLSPGK
light 2: RIQMTQSPSSLSASVGDRVTITCQASQSPNNLLAWYQDKPGKAPKLLIYGASDLPSGVPSRFSGSGSGTDFTLTISSLQPEDFATYYCQNNYYVGPVSYAFGGGTKVEIKGQPKAAPSVTLFPPSSEELQANKATLVCYISDFYPGAVTVAWKADSSPVKAGVETTTPSKQSNNKYAAWSYLSLTPEQWKSHRSYSCQVTHEGSTVEKTVAPTEC
notes: also called human LAG-3/human PD-1 dual agonist bispecific antibody
- EC50 for induction of PD-1 and LAG-3 dimerization (enzyme fragment complementation, luminescence) [1]: 2.47 nM
- Kd (Human LAG-3 ECD-His): 0.53 nM
- koff (Human LAG-3 ECD-His): 0.023 s⁻¹
- kon (Human LAG-3 ECD-His): 4.3e+07 M⁻¹ s⁻¹
- Kd (Cynomolgus PD-1-ECD): 1.1 nM
- koff (Cynomolgus PD-1-ECD): 0.0018 s⁻¹
- kon (Cynomolgus PD-1-ECD): 1.7e+06 M⁻¹ s⁻¹
- Kd (Cynomolgus LAG-3-ECD): 0.031 nM
- koff (Cynomolgus LAG-3-ECD): 0.0017 s⁻¹
- kon (Cynomolgus LAG-3-ECD): 5.5e+07 M⁻¹ s⁻¹
- Kd (Human PD-1 ECD-His): 0.76 nM
- koff (Human PD-1 ECD-His): 0.00058 s⁻¹
- kon (Human PD-1 ECD-His): 770000 M⁻¹ s⁻¹
- EC50 [2]: 7.7 ng/mL
